B1: Pistol ribozyme (parent)
chain: GGGUCGUUGUUCCAUAAUCGCGUGGAUAUGGCACGCAAGUUUCUACCGGGCACCGUAAAUGUCCGACUGGAGCCGUUCGGGCGGCUAUAAACAGACCUCAGGCCCGAAGCGUGGCGGCACCUGCCGCCGGUGGUAAAAAAGAUCGGAAGAGCACACGUCU

Variants of: B1
Experiment: aptazyme ON/OFF ratio, guanine; higher = stronger switching; co-transcriptional cleavage with and without guanine

| Variant | aptazyme ON/OFF ratio |
| --- | --- |
| U8G G9A U10G U11G C13A | 1.56 |
| U8G G9A U10G U11G C13G | 1.15 |
| U8G G9A U11G C12G | 1.23 |
| U8G G9A U11G C12U | 1.34 |
| U8G G9A U11G C12A | 1.08 |
| U8G G9A U10C U11C | 1.03 |
| U8G G9A U10C U11A | 1.37 |
| U8G G9A U10C U11G | 1.34 |
| U8G G9C U10G U11A C12G C13A | 1.14 |
| U8G G9C U10G U11A C12G C13G | 1.29 |
| U8G G9C U10G U11A C12G C13U | 1.2 |
| U8G G9C U10C U11C C12A C13U | 1.07 |
| U8G G9C U10C U11C C12A C13G | 1.06 |
| U8G G9C U10C U11C C12A C13A | 1.02 |
| U8G G9C U10A C12A C13U | 1.17 |
| U8G G9C U10A C12A C13G | 1.12 |
| U8G G9C U10A C12A C13A | 1.13 |
| U8G G9C U10C C12G C13U | 1.08 |
| U8G G9C U10C C12G C13A | 1.16 |
| U8G G9C U10C C12G C13G | 1.06 |
| U8G G9A U11G C12G C13U | 1.23 |
| U8G G9A U11G C12G C13A | 1.27 |
| U8G G9A U11G C12G C13G | 1.57 |
| U8G G9C U10A U11G C12U | 1.2 |

| Variant | aptazyme ON/OFF ratio |
| --- | --- |
| U8G G9C U10A U11G C12G | 1.19 |
| U8G G9C U10A U11G C12A | 1.07 |
| U8G G9C U10A U11C C12G C13G | 1.05 |
| U8G G9C U10A U11C C12G C13A | 1.05 |
| U8G G9C U10A U11C C12G C13U | 1.14 |
| U8G G9A U10G U11G C12G C13A | 1.19 |
| U8G G9A U10G U11G C12G C13U | 1.37 |
| U8G G9A U10G U11G C12G C13G | 1.44 |
| U8G G9C U10A U11C C13A | 1.04 |
| U8G G9C U10A U11C C13U | 1.03 |
| U8G G9C U10A U11C C13G | 1.04 |
| U8G G9C U10G C13G | 1.12 |
| U8G G9C U10G C13A | 1.27 |
| U8G G9C U10G C13U | 1.24 |
| U8G G9C U10C C13U | 1.07 |
| U8G G9C U10C C13A | 1.03 |
| U8G G9C U10C C13G | 1.04 |
| U8G G9C U10G C12A | 1.19 |
| U8G G9C U10G C12G | 1.19 |
| U8G G9C U10G C12U | 1.06 |
| U8G G9A U10C U11A C13U | 1.08 |
| U8G G9A U10C U11A C13G | 1.06 |
| U8G G9A U10C U11A C13A | 1.1 |
| U8G G9C U10A U11C C12A C13G | 1.07 |

| Variant | aptazyme ON/OFF ratio |
| --- | --- |
| U8G G9C U10A U11C C12A C13U | 1.07 |
| U8G G9C U10A U11C C12A C13A | 1.06 |
| U8G G9A U10C U11A C12U C13A | 1.04 |
| U8G G9A U10C U11A C12U C13U | 1.05 |
| U8G G9A U10C U11A C12U C13G | 1.05 |
| U8G G9A U10G C12A | 1.44 |
| U8G G9A U10G C12G | 1.34 |
| U8G G9A U10G C12U | 1.39 |
| U8G G9C U10C C12U C13U | 1.04 |
| U8G G9C U10C C12U C13G | 1.05 |
| U8G G9C U10C C12U C13A | 1.06 |
| U8G G9A U11C C12G C13A | 1.17 |
| U8G G9A U11C C12G C13G | 1.18 |
| U8G G9A U11C C12G C13U | 1.4 |
| U8G G9C U10A C12G C13U | 1.17 |
| U8G G9C U10A C12G C13A | 1.16 |
| U8G G9C U10A C12G C13G | 1.16 |
| U8G G9A U10C C13A | 1.04 |
| U8G G9A U10C C13G | 1.03 |
| U8G G9A U10C C13U | 1.07 |
| U8G G9C C12G C13A | 1.05 |
| U8G G9C C12G C13G | 1.03 |
| U8G G9C C12G C13U | 1.05 |
| U8G G9A U10C U11A C12G C13A | 1.16 |

| Variant | aptazyme ON/OFF ratio |
| --- | --- |
| U8G G9A U10C U11A C12G C13U | 1.15 |
| U8G G9A U10C U11A C12G C13G | 1.07 |
| U8G G9C U10A U11G C12U C13A | 1.06 |
| U8G G9C U10A U11G C12U C13U | 1.17 |
| U8G G9C U10A U11G C12U C13G | 1.1 |
| U8G G9C U10C U11A C12A C13A | 1.06 |
| U8G G9C U10C U11A C12A C13G | 1.07 |
| U8G G9C U10C U11A C12A C13U | 1.05 |
| U8G G9A U10C U11C C12U | 1.02 |
| U8G G9A U10C U11C C12G | 1.05 |
| U8G G9A U10C U11C C12A | 1.08 |
| U8G G9A U10C U11G C12U C13G | 1.18 |
| U8G G9A U10C U11G C12U C13A | 1.34 |
| U8G G9A U10C U11G C12U C13U | 1.21 |
| U8G G9C U10C C12A | 1.05 |
| U8G G9C U10C C12G | 1.08 |
| U8G G9C U10C C12U | 1.03 |
| U8G G9A U10G | 2.04 |
| U8G G9C U10C U11G C12G C13A | 1.08 |
| U8G G9C U10C U11G C12G C13G | 1.11 |
| U8G G9C U10C U11G C12G C13U | 1.08 |
| U8G G9A U10G U11G C12A | 1.32 |
| U8G G9A U10G U11G C12U | 1.12 |
| U8G G9A U10G U11G C12G | 1.33 |

| Variant | aptazyme ON/OFF ratio |
| --- | --- |
| U8G G9C U10A U11C | 1.03 |
| U8G G9C U10A U11A | 1.18 |
| U8G G9C U10A U11G | 1.18 |
| U8G G9A U11A C12G C13G | 1.17 |
| U8G G9A U11A C12G C13U | 1.26 |
| U8G G9A U11A C12G C13A | 1.08 |
| U8G G9C U10A U11A C12A C13U | 1.18 |
| U8G G9C U10A U11A C12A C13G | 1.09 |
| U8G G9C U10A U11A C12A C13A | 1.12 |
| U8G G9A U10C U11C C12G C13G | 1.1 |
| U8G G9A U10C U11C C12G C13A | 1.09 |
| U8G G9A U10C U11C C12G C13U | 1.05 |
| U8G G9A U10C U11G C13A | 1.11 |
| U8G G9A U10C U11G C13G | 1.16 |
| U8G G9A U10C U11G C13U | 1.09 |
| U8G G9A U11G C12A C13A | 1.16 |
| U8G G9A U11G C12A C13G | 1.2 |
| U8G G9A U11G C12A C13U | 1.24 |
| U8G G9C U10C U11G | 1.27 |
| U8G G9C U10C U11A | 1.07 |
| U8G G9C U10C U11C | 1.04 |
| U8G G9A U10G U11A C12A C13A | 1.29 |
| U8G G9A U10G U11A C12A C13G | 1.27 |
| U8G G9A U10G U11A C12A C13U | 1.48 |

| Variant | aptazyme ON/OFF ratio |
| --- | --- |
| U8G G9C U10A U11G C12G C13U | 1.22 |
| U8G G9C U10A U11G C12G C13A | 1.35 |
| U8G G9C U10A U11G C12G C13G | 1.31 |
| U8G G9C U10C U11G C13U | 1.16 |
| U8G G9C U10C U11G C13G | 1.1 |
| U8G G9C U10C U11G C13A | 1.17 |
| U8G G9C U10C U11A C13G | 1.05 |
| U8G G9C U10C U11A C13U | 1.1 |
| U8G G9C U10C U11A C13A | 1.09 |
| U8G G9C C13G | 1.03 |
| U8G G9C C13U | 1.04 |
| U8G G9C C13A | 1.04 |
| U8G G9C C12U C13U | 1.06 |
| U8G G9C C12U C13G | 1.04 |
| U8G G9C C12U C13A | 1.05 |
| U8G G9C U10C C12A C13U | 1.05 |
| U8G G9C U10C C12A C13G | 1.06 |
| U8G G9C U10C C12A C13A | 1.05 |
| U8G G9A U10G U11C C13U | 1.05 |
| U8G G9A U10G U11C C13A | 1.06 |
| U8G G9A U10G U11C C13G | 1.05 |
| U8G G9A U10G U11C C12U C13G | 1.2 |
| U8G G9A U10G U11C C12U C13A | 1.06 |
| U8G G9A U10G U11C C12U C13U | 1.06 |

| Variant | aptazyme ON/OFF ratio |
| --- | --- |
| U8G G9C U10A U11A C12G C13A | 1.11 |
| U8G G9C U10A U11A C12G C13U | 1.18 |
| U8G G9C U10A U11A C12G C13G | 1.18 |
| U8G G9C U10A C13U | 1.09 |
| U8G G9C U10A C13A | 1.07 |
| U8G G9C U10A C13G | 1.06 |
| U8G G9A U10C U11G C12A | 1.06 |
| U8G G9A U10C U11G C12U | 1.29 |
| U8G G9A U10C U11G C12G | 1.45 |
| U8G G9A U10G U11G C12A C13G | 1.16 |
| U8G G9A U10G U11G C12A C13U | 1.41 |
| U8G G9A U10G U11G C12A C13A | 1.57 |
| U8G G9A U10G U11A C12G C13U | 1.24 |
| U8G G9A U10G U11A C12G C13G | 1.03 |
| U8G G9A U10G U11A C12G C13A | 1.21 |
| U8G G9A U10C C12U C13G | 1.08 |
| U8G G9A U10C C12U C13U | 1.11 |
| U8G G9C C12A | 1.07 |
| U8G G9C C12U | 1.07 |
| U8G G9C C12G | 1.05 |
| U8G G9C U10A U11G C13G | 1.04 |
| U8G G9C U10A U11G C13U | 1.05 |
| U8G G9C U10A U11G C13A | 1.08 |

Source: the RNAGym collection of RNA variant scans (doi:10.1021/acssynbio.7b00057)
